B1: Fcmut-02 (antibody, human IgG1, kappa)
heavy: QVQLVQSGAEVKKPGSSVKVSCKASGYSFSSYNIHWVRQAPGQGLEWMGYIAPFQGDSRYNQKFKGRVTITADKSTSTAYMELSSLRSEDTAVYYCARLNRGNSLDYWGQGTLVTVSSASTKGPSVFPLAPSSKSTSGGTAALGCLVKDYFPEPVTVSWNSGALTSGVHTFPAVLQSSGLYSLSSVVTVPSSSLGTQTYICNVNHKPSNTKVDKKVEPKSCDKTHTCPPCPAPELLGGPSVFLFPPKPKDTLMISRTPEVTCVVVDVSHEDPEVKFNWYVDGVEVHNAKTKPREEQYNSTYRVVSVLTVLHQDWLNGKEYKCKVSNKALAPIEKTISKAKGQPREPQVYTLPPSREEMTKNQVSLTCLVKGFYPSDIAVEWESNGQPENNYKTTPPVLDSDGSFFLYSKLTVDKSRWQQGNVFSCSVMHEALHNHYTQKSLSLSPGK
light: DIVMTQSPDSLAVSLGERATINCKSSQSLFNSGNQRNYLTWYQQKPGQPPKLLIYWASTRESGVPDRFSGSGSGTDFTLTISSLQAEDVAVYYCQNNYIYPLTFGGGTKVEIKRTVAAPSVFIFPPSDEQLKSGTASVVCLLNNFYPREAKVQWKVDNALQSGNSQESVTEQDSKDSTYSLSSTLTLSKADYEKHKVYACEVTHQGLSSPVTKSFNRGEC
notes: IgG1-mut of Fcmut-01: deletion of 329 (EU index); also called Fcmut-2
B2: Fcmut-03 (antibody, human IgG1, kappa)
heavy: B1 heavy with A330G
light: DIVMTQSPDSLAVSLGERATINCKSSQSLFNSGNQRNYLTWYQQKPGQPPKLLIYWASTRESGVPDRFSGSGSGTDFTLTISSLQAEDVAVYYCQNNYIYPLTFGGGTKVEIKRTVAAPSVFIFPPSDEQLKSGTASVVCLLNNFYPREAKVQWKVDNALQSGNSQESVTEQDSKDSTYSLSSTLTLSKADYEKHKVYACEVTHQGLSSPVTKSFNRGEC
notes: IgG1-mut of Fcmut-01: deletion of 329, G at 330 (EU index)
B3: Fcmut-04 (antibody, human IgG1, kappa)
heavy: QVQLVQSGAEVKKPGSSVKVSCKASGYSFSSYNIHWVRQAPGQGLEWMGYIAPFQGDSRYNQKFKGRVTITADKSTSTAYMELSSLRSEDTAVYYCARLNRGNSLDYWGQGTLVTVSSASTKGPSVFPLAPSSKSTSGGTAALGCLVKDYFPEPVTVSWNSGALTSGVHTFPAVLQSSGLYSLSSVVTVPSSSLGTQTYICNVNHKPSNTKVDKKVEPKSCDKTHTCPPCPAPELLGGPSVFLFPPKPKDTLMISRTPEVTCVVVDVSHEDPEVKFNWYVDGVEVHNAKTKPREEQYNSTYRVVSVLTVLHQDWLNGKEYKCKVSNKALPIEKTISKAKGQPREPQVYTLPPSREEMTKNQVSLTCLVKGFYPSDIAVEWESNGQPENNYKTTPPVLDSDGSFFLYSKLTVDKSRWQQGNVFSCSVMHEALHNHYTQKSLSLSPGK
light: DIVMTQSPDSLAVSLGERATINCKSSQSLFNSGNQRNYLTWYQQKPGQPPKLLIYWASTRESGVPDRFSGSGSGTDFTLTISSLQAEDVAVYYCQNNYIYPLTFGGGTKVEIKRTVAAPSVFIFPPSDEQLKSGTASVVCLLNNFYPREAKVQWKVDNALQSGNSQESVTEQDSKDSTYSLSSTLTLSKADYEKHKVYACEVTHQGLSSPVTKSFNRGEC
notes: IgG1-mut of Fcmut-01: deletion of 329 and 330 (EU index)
B4: Fcmut-06 (antibody, human IgG1, kappa, L234A L235A)
heavy: B1 heavy with L235A, L236A
light: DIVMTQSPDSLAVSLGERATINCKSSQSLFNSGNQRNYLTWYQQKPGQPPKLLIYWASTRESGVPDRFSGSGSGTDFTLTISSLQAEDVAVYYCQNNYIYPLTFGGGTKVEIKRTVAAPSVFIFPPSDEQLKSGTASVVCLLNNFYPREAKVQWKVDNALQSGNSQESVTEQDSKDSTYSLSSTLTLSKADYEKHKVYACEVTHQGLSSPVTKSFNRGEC
notes: IgG1-mut of Fcmut-01: L234A + L235A + deletion of 329 (EU index)
B5: Fcmut-07 (antibody, human IgG1, kappa, L234A L235A)
heavy: B1 heavy with L235A, L236A, A330G
light: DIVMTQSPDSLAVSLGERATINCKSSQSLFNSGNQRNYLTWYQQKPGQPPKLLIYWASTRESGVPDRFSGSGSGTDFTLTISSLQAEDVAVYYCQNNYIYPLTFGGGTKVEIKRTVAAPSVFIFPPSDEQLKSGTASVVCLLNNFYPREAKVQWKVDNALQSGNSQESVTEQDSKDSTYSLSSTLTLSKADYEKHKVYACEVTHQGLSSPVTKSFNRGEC
notes: IgG1-mut of Fcmut-01: L234A + L235A + deletion of 329 + G at 330 (EU index)

The Kd is the free concentration of one partner at which half of the binding sites on the other are occupied at equilibrium, for simple one-to-one binding. A lower Kd goes with tighter binding. Broadly, the koff is the first-order rate constant of dissociation. A low value points to slow dissociation. Broadly, the kon is the rate constant with which the complex forms. The low end stands for slow association, the high end for fast association.

Substitutions are numbered along the chain they refer to. In names and notes the source's numbering stands.

T9 sequence (P02745 23-245 limits assumed, chain 1 of 3): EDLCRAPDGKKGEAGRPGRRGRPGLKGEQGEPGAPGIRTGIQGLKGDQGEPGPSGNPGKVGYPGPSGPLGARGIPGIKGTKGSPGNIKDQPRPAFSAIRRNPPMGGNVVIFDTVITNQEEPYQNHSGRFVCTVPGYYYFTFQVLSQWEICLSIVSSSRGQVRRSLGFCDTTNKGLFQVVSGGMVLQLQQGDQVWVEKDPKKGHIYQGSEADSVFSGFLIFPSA
T9 sequence (P02746 28-253 limits assumed, chain 2 of 3): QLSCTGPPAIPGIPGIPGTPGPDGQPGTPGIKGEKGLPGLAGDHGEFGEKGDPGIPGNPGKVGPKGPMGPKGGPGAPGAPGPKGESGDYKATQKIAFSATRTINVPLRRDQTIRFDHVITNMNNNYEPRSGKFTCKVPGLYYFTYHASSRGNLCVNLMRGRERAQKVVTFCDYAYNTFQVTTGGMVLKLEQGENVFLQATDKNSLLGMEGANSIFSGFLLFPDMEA
T9 sequence (P02747 29-245 limits assumed, chain 3 of 3): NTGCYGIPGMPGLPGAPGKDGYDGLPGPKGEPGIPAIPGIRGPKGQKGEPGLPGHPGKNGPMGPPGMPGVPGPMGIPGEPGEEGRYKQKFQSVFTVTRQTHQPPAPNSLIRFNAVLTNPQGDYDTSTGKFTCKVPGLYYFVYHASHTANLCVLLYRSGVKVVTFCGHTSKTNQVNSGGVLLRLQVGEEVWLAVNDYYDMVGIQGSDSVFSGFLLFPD
T3 sequence (P08637 17-208 F176V limits assumed): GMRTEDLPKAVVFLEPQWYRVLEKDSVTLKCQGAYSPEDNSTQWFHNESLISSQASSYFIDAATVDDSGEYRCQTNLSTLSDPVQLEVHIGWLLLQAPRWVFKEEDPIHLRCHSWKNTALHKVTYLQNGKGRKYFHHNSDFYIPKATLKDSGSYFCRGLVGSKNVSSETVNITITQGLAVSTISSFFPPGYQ
T5 sequence (O75015 17-200 N65S limits assumed): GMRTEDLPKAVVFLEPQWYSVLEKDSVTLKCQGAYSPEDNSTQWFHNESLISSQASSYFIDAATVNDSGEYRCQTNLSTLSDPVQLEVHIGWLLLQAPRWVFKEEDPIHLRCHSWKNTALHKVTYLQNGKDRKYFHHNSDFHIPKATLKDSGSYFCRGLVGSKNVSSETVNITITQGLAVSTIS
T2 sequence (P08637 17-208 limits assumed): as the sequence (P08637 17-208 F176V limits assumed) above, with V160F counted along it
T1 sequence (P12314 16-288 limits assumed): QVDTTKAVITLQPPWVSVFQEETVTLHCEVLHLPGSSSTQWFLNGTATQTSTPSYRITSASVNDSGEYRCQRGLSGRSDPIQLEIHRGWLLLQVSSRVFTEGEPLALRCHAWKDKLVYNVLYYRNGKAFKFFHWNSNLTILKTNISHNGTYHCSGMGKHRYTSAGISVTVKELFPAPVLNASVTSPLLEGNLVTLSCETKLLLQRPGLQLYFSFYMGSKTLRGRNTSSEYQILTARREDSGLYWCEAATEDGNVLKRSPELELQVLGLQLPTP

One experiment has as its target T1, Human CD64/FCGR1A protein (human, UniProt P12314 16-288, limits assumed).
T1 construct: Bought, his-tagged; also called FcγRI; not shown: his tag
Description: SPR (Biacore T200).
B1: the “fold reduction of binding against Fcmut-01” value (shortened to “fold reduction of binding”) turned out to be 8.7 times.

In the case of B2, the “fold reduction of binding” value was determined as 12.9 times.

As for B3, the “fold reduction of binding” value turned out to be 14 times.

A further experiment concerns the target T2, Human FcγRIIIA/CD16A (F176) protein (human, UniProt P08637 17-208).
T2 construct: Bought, his-tagged; not shown: his tag
Briefly: SPR (Biacore T200). For orientation: Surface plasmon resonance follows binding to a sensor surface in real time, without labels.
With B1, the binding result is recorded as “no binding (tested: 400 nM)”.

Consider B4, for which the binding result is on record as “no binding (tested: 400 nM)”.

B5: the binding result is reported as “no binding (tested: 400 nM)”.

On to B2, for which the binding result is reported as “no binding (tested: 400 nM)”.

On to B3, for which the binding result is listed as “no binding (tested: 400 nM)”.

A further experiment addresses T3, Human FcγRIIIA/CD16A (V176) protein (human, UniProt P08637 17-208).
T3 construct: Bought, his-tagged; not shown: his tag
Briefly: SPR (Biacore T200).
With B1, the binding result was “no binding (tested: 400 nM)”.

In the case of B4, the binding result is listed as “no binding (tested: 400 nM)”.

As to B5, the binding result is reported as “no binding (tested: 400 nM)”.

Consider B2, for which the binding result is listed as “no binding (tested: 400 nM)”.

Turning to B3, the binding result is “no binding (tested: 400 nM)”.

The next experiment deals with T4, Human FcγRIIIB/CD16B (NA1) (human, UniProt O75015 17-200, limits assumed).
T4 construct: Bought, his-tagged; not shown: his tag
T4 sequence (O75015 other isoform, or with tags, fused parts or gaps limits assumed): as the sequence (O75015 17-200 N65S limits assumed) above, with S20R, S49N, N66D, I90V counted along it
Description: SPR (Biacore T200).
With B1, the binding result is listed as “no binding (tested: 400 nM)”.

For the molecule B4, the binding result is “no binding (tested: 400 nM)”.

As for B5, the binding result was “no binding (tested: 400 nM)”.

Turning to B2, the binding result was “no binding (tested: 400 nM)”.

As for B3, the binding result is “no binding (tested: 400 nM)”.

The next experiment has as its target T5, Human FcγRIIIB/CD16B (NA2) (human, UniProt O75015 17-200, limits assumed).
T5 construct: Bought, his-tagged; not shown: his tag
Briefly: SPR (Biacore T200).
For the molecule B1, the binding result is reported as “no binding (tested: 400 nM)”.

Take B4: the binding result was “no binding (tested: 400 nM)”.

As to B5, the binding result is given as “no binding (tested: 400 nM)”.

Turning to B2, the binding result was “no binding (tested: 400 nM)”.

Regarding B3, the binding result is “no binding (tested: 400 nM)”.

For the next experiment, the target named is T6, Human CD32A/FCGR2A protein (167his) (human, UniProt P12318 34-218, limits assumed).
T6 construct: Bought, his-tagged; also called CD32A (H167); CD32A H167; not shown: his tag
T6 sequence (looked up): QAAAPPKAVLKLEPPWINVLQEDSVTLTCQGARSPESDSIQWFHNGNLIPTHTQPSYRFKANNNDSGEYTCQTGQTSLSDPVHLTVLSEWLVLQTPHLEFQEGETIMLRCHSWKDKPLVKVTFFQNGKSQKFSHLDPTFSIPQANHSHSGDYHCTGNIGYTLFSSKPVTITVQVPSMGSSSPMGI
Description: SPR (Biacore T200).
Regarding B1, the binding result is on record as “no binding (tested: 400 nM)”.

Regarding B4, the binding result was “no binding (tested: 400 nM)”.

As for B5, the binding result is recorded as “no binding (tested: 400 nM)”.

As to B2, the binding result was “no binding (tested: 400 nM)”.

As to B3, the binding result was “no binding (tested: 400 nM)”.

A further experiment has as its target T7, Human CD32A/FCGR2A protein (167Arg) (human, UniProt P12318 34-218, limits assumed).
T7 construct: Bought, his-tagged; also called CD32A (R167); CD32A R167; not shown: his tag
T7 sequence (looked up): T6 sequence (looked up) with H134R
Description: SPR (Biacore T200).
Regarding B1, the binding result is “no binding (tested: 400 nM)”.

In the case of B4, the binding result was “no binding (tested: 400 nM)”.

Turning to B5, the binding result was “no binding (tested: 400 nM)”.

With B2, the binding result is on record as “no binding (tested: 400 nM)”.

With B3, the binding result is on record as “no binding (tested: 400 nM)”.

A further experiment has as its target T8, Human CD32B/FCGR2B protein (human, UniProt P31994 43-217, limits assumed).
T8 construct: Bought, his-tagged; also called FcγRIIb; not shown: his tag
T8 sequence (looked up): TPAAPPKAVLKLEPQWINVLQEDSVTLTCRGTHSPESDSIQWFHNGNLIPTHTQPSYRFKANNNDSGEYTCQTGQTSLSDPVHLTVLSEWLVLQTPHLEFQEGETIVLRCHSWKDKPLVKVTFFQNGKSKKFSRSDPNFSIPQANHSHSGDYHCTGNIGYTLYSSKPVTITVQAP
Briefly: SPR (Biacore T200).
In the case of B1, the binding result is given as “no binding (tested: 400 nM)”.

B4: the binding result is listed as “no binding (tested: 400 nM)”.

B5: the binding result is given as “no binding (tested: 400 nM)”.

For B2, the binding result is given as “no binding (tested: 400 nM)”.

With B3, the binding result is recorded as “no binding (tested: 400 nM)”.

For the next experiment, the target named is T1, Human CD64/FCGR1A protein. Briefly: SPR (Biacore T200). The source holds these as a separate data set.
Description: (§1) The specific procedures were as follows: Each of FcγR and FcRn proteins (for information of each Fc receptor, see Table 2 below) containing a histidine tag was captured to the chip surface to which anti-histidine antibodies were coupled, and the binding and dissociation between the proteins on the chip surface and antibodies in the mobile phase were detected to obtain affinity and kinetic constants.
(§2) Affinity assay: Each cycle included capture of the receptor, binding of a certain concentration of the antibody carrying the Fc region mutation of the present application, and regeneration of the chip. […] In each cycle, the antibody mutant solution flowed over the chip surface at a flow rate of 30 μL/min, with the binding time of 60 s and the dissociation time of 60 s. […] The obtained data were analyzed using Biacore T200 analysis software (version number 3.1) and using an analysis 1:1 binding or homeostasis analysis model to obtain the corresponding results.
On to B4, for which the binding result was “no binding (tested: 400 nM)”.

Take B5: the binding result is given as “no binding (tested: 400 nM)”.

Another experiment has as its target T9, human C1q (human, UniProt P02745 23-245; P02746 28-253; P02747 29-245).
T9 construct: Bought C1q (Complement Technology); also called C1q antigen
Briefly: BLI (Octet), biotinylated antibody on SA sensor. (BLI is a label-free optical method that tracks binding on a fibre tip over time.)
Description: (§3) The antibody was diluted to approximately 100 nM, and C1q (Δ099, Complement Technology) was diluted to 40 nM.
(§4) Detection was conducted using Fortebio Octet Red96e, and the sensors were arranged according to the positions of the samples. […] After the experiment was completed, KD values were analyzed using ForteBio Octet analysis software, the coordinate axis data were derived, and Graphpad Prism 8 software was used for plotting.
Consider B1, for which the binding result is given as “no binding (tested: C1q 40 nM)”.

On to B2, for which the binding result is listed as “no binding (tested: C1q 40 nM)”.

The next experiment addresses T10, Claudin18.2 (cp0007, Genscript) (UniProt P56856-2 1-261, limits assumed).
T10 construct: Bought antigen used in BLI; also called Claudin18.2 antigen; the antigen
T10 sequence (looked up): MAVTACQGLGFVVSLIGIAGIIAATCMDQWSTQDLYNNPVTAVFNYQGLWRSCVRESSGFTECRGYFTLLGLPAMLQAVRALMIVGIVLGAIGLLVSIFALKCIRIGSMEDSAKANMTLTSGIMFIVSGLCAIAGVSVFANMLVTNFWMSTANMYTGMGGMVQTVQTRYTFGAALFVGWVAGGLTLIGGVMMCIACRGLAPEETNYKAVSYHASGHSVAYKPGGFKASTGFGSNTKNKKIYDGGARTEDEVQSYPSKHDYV
Briefly: BLI (Octet), antibody on AHC sensor, Claudin18.2 100 nM.
Description: The antibody and Claudin18.2 (cp0007, Genscript) were diluted to 100 nM, respectively.
Detection was conducted using Fortebio Octet Red96e, and the sensors were arranged according to the positions of the samples. […] After the experiment was completed, KD values were analyzed using ForteBio Octet analysis software.
Molecule B1 showed an equilibrium dissociation constant (Kd) of 2.73 nM, a Response of 0.138 nm, a koff of 0.0002 s⁻¹ and an association rate constant (kon) of 73200 M⁻¹ s⁻¹.

On to B4, for which binding was put at a Kd of 2.44 nM, the Response came out at 0.144 nm, the dissociation rate constant (koff) worked out at 0.0002 s⁻¹ and the kon was 81900 M⁻¹ s⁻¹.

B5 came in with a dissociation constant Kd of 2.47 nM, a Response of 0.154 nm, a koff of 0.0002 s⁻¹ and an association rate constant (kon) of 80900 M⁻¹ s⁻¹.

Turning to B2, the equilibrium dissociation constant (Kd) was determined as 2.9 nM, the Response was determined as 0.15 nm, the koff worked out at 0.0002 s⁻¹ and the on-rate constant (kon) amounted to 69000 M⁻¹ s⁻¹.

B3: the Kd was determined as 2.83 nM, the Response stood at 0.146 nm, the off-rate (koff) was determined as 0.0002 s⁻¹ and the kon is 70700 M⁻¹ s⁻¹.

A further experiment concerns the target T9, human C1q. Briefly: BLI (Octet), biotinylated antibody on SA sensor, C1q 40 nM.
Description: as §3, §4
As to B1, the Response was 0.0007 nm.

In turn, B4 displayed a Response of -0.0035 nm.

As for B5, the Response was -0.0134 nm.

Consider B2, for which the Response was 0.0016 nm.

Take B3: the Response was -0.0027 nm.

A further experiment concerns the target T1, Human CD64/FCGR1A protein. Briefly: SPR (Biacore T200), his-tagged receptor captured, antibody in flow.
Description: as §1, §2
Take B1: the dissociation constant Kd worked out at 9.31 nM.

Take B2: the dissociation constant (Kd) was 13.8 nM. This Kd and that of the molecule before are within 1.5-fold of each other.

B3 displayed a Kd of 15 nM.

Another experiment deals with T11, Human FcRn/FCGRT & B2M heterodimeric protein (human, UniProt P55899 24-297; P61769 21-119).
T11 construct: Bought heterodimer with His and Strep II tags
T11 sequence (P55899 24-297 limits assumed, chain 1 of 2): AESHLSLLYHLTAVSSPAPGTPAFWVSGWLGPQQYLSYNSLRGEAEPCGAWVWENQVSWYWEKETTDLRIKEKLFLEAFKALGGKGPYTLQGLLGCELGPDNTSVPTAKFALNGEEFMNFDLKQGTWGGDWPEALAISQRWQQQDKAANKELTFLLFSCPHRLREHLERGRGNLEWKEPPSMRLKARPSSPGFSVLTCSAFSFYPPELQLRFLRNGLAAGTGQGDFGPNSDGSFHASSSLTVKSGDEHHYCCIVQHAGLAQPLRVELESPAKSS
T11 sequence (P61769 21-119 limits assumed, chain 2 of 2): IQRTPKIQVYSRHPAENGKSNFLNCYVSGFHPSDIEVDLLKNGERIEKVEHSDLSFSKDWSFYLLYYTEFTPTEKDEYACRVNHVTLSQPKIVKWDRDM
Description: SPR (Biacore T200), FcRn captured, antibody in flow, pH 6.0; pH 6.0.
Description: as §1, §2
Regarding B1, the dissociation constant (Kd) stood at 447 nM.

On to B4, for which the Kd stood at 284 nM.

Molecule B5 gave a Kd of 374 nM.

Take B2: the equilibrium dissociation constant (Kd) is 317 nM. This Kd and that of the molecule before are within 1.5-fold of each other.

For the molecule B3, the Kd stood at 505 nM.

Another experiment deals with T1, Human CD64/FCGR1A protein. Briefly: SPR (Biacore T200), his-tagged CD64 captured on anti-His CM5 chip, antibody as analyte, pH 7.4, 1:1 binding fit.
Description: as §1, §2
The molecule B1 registered a koff of 0.0136 s⁻¹ and an on-rate (kon) of 1.46e+06 M⁻¹ s⁻¹.

Molecule B2 registered a koff of 0.0377 s⁻¹ and a kon of 2.74e+06 M⁻¹ s⁻¹.

B3 returned a dissociation rate constant (koff) of 0.0141 s⁻¹ and a kon of 938000 M⁻¹ s⁻¹.

Source of the values: US20240228579A1 (Innovent, published 2024).
